According to patent publication US20030113787A1 (Takeda / Millennium, published 2003):

Experiments:
FLAG-CARD10/ΔCARD [1] = target: T1, FLAG-CARD10/ΔCARD (human, UniProt Q9BWT7 131-1032); test: co-immunoprecipitation from transfected 293T cells
T1 construct: also called CARD-10 truncation mutant lacking its CARD domain
T1 sequence: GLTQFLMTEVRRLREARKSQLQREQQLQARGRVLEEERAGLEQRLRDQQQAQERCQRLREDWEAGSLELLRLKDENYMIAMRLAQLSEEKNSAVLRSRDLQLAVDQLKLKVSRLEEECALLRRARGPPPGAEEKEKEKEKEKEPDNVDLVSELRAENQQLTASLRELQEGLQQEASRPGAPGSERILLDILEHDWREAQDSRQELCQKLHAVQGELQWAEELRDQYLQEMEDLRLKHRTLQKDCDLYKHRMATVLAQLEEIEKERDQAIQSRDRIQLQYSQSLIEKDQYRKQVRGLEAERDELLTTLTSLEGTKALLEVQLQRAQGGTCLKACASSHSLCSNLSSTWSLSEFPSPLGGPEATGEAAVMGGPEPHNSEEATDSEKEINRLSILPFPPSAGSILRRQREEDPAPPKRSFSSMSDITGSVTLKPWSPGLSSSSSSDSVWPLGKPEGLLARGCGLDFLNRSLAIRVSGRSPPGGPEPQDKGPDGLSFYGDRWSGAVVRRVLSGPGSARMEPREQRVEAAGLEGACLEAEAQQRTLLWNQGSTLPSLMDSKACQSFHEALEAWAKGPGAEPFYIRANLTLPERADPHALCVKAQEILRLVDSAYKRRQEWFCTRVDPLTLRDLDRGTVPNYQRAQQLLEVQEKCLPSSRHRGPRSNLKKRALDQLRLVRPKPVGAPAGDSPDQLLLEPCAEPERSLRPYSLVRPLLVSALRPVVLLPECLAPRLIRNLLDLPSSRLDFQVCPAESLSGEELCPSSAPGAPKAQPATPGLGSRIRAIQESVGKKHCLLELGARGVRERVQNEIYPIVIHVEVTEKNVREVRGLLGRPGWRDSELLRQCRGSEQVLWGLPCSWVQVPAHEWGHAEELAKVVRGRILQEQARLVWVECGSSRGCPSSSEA

FLAG-tagged CARD-10 = target: T2, FLAG-tagged CARD-10 (human, UniProt Q9BWT7 1-1032); test: co-immunoprecipitation from transfected 293T cells
T2 construct: Expressed in 293T cells; also called FLAG-CARD-10
T2 sequence: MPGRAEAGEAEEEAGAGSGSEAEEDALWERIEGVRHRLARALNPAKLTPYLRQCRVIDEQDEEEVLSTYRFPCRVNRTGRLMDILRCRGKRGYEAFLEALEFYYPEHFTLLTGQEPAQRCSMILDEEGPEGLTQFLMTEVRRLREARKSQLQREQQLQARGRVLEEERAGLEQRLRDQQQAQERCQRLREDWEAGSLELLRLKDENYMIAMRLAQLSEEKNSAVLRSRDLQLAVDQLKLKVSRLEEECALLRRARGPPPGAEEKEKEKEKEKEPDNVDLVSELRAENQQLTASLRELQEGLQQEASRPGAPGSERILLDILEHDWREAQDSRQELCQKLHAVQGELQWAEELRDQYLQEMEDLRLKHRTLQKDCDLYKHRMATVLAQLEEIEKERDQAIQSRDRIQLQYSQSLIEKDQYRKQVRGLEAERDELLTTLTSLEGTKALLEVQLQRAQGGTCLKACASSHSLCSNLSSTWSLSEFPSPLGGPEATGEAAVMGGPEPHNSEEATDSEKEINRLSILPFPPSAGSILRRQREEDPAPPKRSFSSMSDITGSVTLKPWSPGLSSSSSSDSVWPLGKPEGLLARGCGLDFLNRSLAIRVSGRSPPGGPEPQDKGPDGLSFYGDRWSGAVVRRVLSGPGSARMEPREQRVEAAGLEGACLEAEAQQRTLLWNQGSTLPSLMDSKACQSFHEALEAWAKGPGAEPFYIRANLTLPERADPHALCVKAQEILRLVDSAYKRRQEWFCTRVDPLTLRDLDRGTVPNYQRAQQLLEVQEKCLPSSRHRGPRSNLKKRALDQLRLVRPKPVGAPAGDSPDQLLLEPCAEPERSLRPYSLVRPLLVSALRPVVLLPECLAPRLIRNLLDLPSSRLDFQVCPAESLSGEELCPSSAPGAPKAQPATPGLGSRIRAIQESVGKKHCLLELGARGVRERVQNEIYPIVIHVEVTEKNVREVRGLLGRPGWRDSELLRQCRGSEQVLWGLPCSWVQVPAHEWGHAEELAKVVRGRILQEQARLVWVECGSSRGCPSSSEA

FLAG-CARD10/ΔCARD [2] = target: T1, FLAG-CARD10/ΔCARD; test: co-immunoprecipitation with anti-Bcl-10 antibodies, anti-FLAG blot

| Binder | binding result (FLAG-CARD10/ΔCARD [1]) | binding result (FLAG-tagged CARD-10) | binding result (FLAG-CARD10/ΔCARD [2]) |
| --- | --- | --- | --- |
| variant Bcl-10 with a point mutation (L41R) (other, UniProt O95999 1-233, looked up, also called Bcl-10 L41R mutant) MEPTAPSLTEEDLTEVKKDALENLRVYLCEKIIAERHFDHRRAKKILSREDTEEISCRTSSRKRAGKLLDYLQENPKGLDTLVESIRREKTQNFLIQKITDEVLKLRNIKLEHLKGLKCSSCEPFPDGATNNLSRSNSDESNFSEKLRASTVMYHPEGESSTTPFFSTNSSLNLPVLEVGRTENTIFSSTTLPRPGDPGAPPLPPDLQLEEEGTCANSSEMFLPLRSRTVSRQ | no binding | no binding | – |
| endogenous Bcl-10 (other, human, UniProt O95999 1-233, looked up, Endogenous protein in cell extracts) MEPTAPSLTEEDLTEVKKDALENLRVYLCEKIIAERHFDHLRAKKILSREDTEEISCRTSSRKRAGKLLDYLQENPKGLDTLVESIRREKTQNFLIQKITDEVLKLRNIKLEHLKGLKCSSCEPFPDGATNNLSRSNSDESNFSEKLRASTVMYHPEGESSTTPFFSTNSSLNLPVLEVGRTENTIFSSTTLPRPGDPGAPPLPPDLQLEEEGTCANSSEMFLPLRSRTVSRQ | – | – | no binding |
